Experimental data as given in patent publication US20170152311A1 (published 2017).
Where a chain is given by its changes, count along the chain named. One block for each binder: values may come before it.

Assays:
[1] = target: T1, recombinant human M-CSF (human, UniProt P09603 33-190, limits assumed); assay: SPR (Biacore), antibody captured on anti-mouse Fc chip, M-CSF flowed, 25 C, 1:1 model
T1 construct: The active form is described as a disulfide bonded dimer; also called M-SCF; CSF-1
T1 sequence: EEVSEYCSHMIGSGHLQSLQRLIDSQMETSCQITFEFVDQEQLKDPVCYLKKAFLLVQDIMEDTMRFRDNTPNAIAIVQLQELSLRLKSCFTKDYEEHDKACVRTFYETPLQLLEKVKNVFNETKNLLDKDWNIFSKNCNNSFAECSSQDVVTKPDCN
Protocol: Binding properties of the aforementioned antibodies were analyzed using Biacore analyses. […] The aforementioned antibodies were then captured on the anti-mouse Fc/CM5 biosensor chip at 1.5 μg/ml for 3 min at 2 μl/min. MCSF was flowed over the modified biosensor surface at varying concentrations (Rmax ˜15). Test antibodies and antigen were diluted in 0.01 M HEPES pH 7.4, 0.15 M NaCL, 3 mM EDTA, 0.005% Surfactant P20 (HBS-EP). All experiments were performed at 25° C. Kinetic and affinity constants were determined using Biaevaluation software (Biacore) with a 1:1 interaction model/global fit.

[2] = target: T1, recombinant human M-CSF; assay: SPR (Biacore), M-CSF amine-coupled on CM5 chip, antibody flowed 100 nM to 1.5 nM, 25 C, 1:1 model, n = 5
Protocol: (§1) To determine the relative differences in the binding affinity of intact antibodies by Biacore analysis, M-CSF was immobilized onto CMS biosensor chip via amine coupling. 0.05 μg/ml M-CSF in 10 mM Na-Acetate pH 4.0 was injected at 1 μl/min for 5 minutes to achieve RL=6-12 RU. Test antibody or Fab fragments were flowed over the modified biosensor surface at varying concentrations ranging from 100 nM to 1.5 nM in 2-fold dilutions. Test antibodies were diluted in 0.01 M HEPES pH 7.4, 0.15 M NaCL, 3 mM EDTA, 0.005% Surfactant P20 (HBS-EP) and all experiments were done at 25° C. Each concentration point and buffer blanks were run in triplicate, and data was collected over 3 minutes of association and 8 minutes of dissociation. Kinetic and affinity constants were determined using Biaevaluation software with a 1:1 interaction model/global fit.

[3] = target: T1, recombinant human M-CSF; assay: SPR (Biacore), M-CSF amine-coupled on CM5 chip, antibody flowed, 25 C, 1:1 model, n = 5
Protocol: as §1

[4] = target: T1, recombinant human M-CSF; assay: SPR (Biacore), M-CSF amine-coupled on CM5 chip, antibody flowed
Protocol: as §1

[5] = target: T1, recombinant human M-CSF; assay: cell-based or functional assay
[6] = target: T1, recombinant human M-CSF; assay: SPR (Biacore), M-CSF amine-coupled on CM5 chip, antibody flowed 100 nM to 1.5 nM, 25 C, 1:1 model
Protocol: as §1

[7] = target: T1, recombinant human M-CSF; assay: SPR (Biacore), M-CSF amine-coupled on CM5 chip, antibody flowed, 25 C, 1:1 model, n = 21
Protocol: as §1

[8] = target: T1, recombinant human M-CSF; assay: cell-based or functional assay; remark: listed apart in the source
[9] = target: T1, recombinant human M-CSF; assay: SPR (Biacore), M-CSF amine-coupled on CM5 chip, antibody flowed 100 nM to 1.5 nM, 25 C, 1:1 model, n = 21
Protocol: as §1

[10] = target: T1, recombinant human M-CSF; assay: SPR (Biacore), M-CSF amine-coupled on CM5 chip, antibody or Fab flowed, 25 C, 1:1 model
Protocol: Specifically, M-CSF was immobilized onto CM5 biosensor chip via amine coupling. 0.05 μg/ml M-CSF in 10mM Na Acetate pH 4.0 was injected at 1 μl/min for 5 minutes to achieve RL=6-12 RU. Test antibody (or Fab fragment) were flowed over the modified biosensor surface at varying concentrations. Test antibodies were diluted in 0.01 M HEPES pH 7.4, 0.15 M NaCL, 3 mM EDTA, 0.005% Surfactant P20 (HBS-EP) and all experiments were done at 25° C. Kinetic and affinity constants were determined using Biaevaluation software (Biacore) with a 1:1 interaction model/global fit.

[11] = target: T1, recombinant human M-CSF; assay: SPR (Biacore), M-CSF amine-coupled on CM5 chip, antibody flowed 100 nM to 1.5 nM, 25 C, 1:1 model, n = 2
Protocol: as §1

[12] = target: T1, recombinant human M-CSF; assay: SPR (Biacore), M-CSF amine-coupled on CM5 chip, antibody flowed, 25 C, 1:1 model, n = 2
Protocol: as §1

[13] = target: T1, recombinant human M-CSF; assay: SPR (Biacore), M-CSF amine-coupled on CM5 chip, antibody flowed, 25 C, 1:1 model
Protocol: as §1

Kd [1]: 0.27 nM
koff [1]: 0.000193 s⁻¹
kon [1]: 704000 M⁻¹ s⁻¹
B1: murine monoclonal antibody MC3 (antibody, V domains shown)
VH: DVQLQESGPGLVKPSQSLSLTCTVTGYSITSDYAWNWIRQFPGNKLEWMGYISYSGSTSYNPSLKSRISITRDTSKNQFFLQLNSVTTEDTATYYCARLETWLFDYWGQGTTLTVSS
VL: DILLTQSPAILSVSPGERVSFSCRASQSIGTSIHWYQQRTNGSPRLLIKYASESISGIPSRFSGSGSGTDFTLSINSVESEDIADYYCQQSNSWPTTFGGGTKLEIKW
notes: Hybridoma ATCC PTA-6264

Kd [10]: 10.8 nM
koff [10]: 0.00303 s⁻¹
kon [10]: 281000 M⁻¹ s⁻¹
B8: rRX1 Fab (mouse) (Fab, V domains shown)
VH: DVQLQESGPGLVKPSQSLSLTCTVTDYSITSDYAWNWIRQFPGNKLEWMGYISYSGSTSYNPSLKSRISITRDTSKNQFFLQLNSVTTEDTATYYCASFDYAHAMDYWGQGTSVTVSS
VL: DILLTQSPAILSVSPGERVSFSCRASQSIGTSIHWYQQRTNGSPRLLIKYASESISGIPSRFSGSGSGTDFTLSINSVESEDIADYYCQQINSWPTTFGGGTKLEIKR
notes: Fab fragment; also called Fab fragment of RX1

Kd [13]: 5.9 nM
koff [13]: 0.00118 s⁻¹
kon [13]: 201000 M⁻¹ s⁻¹
fold decrease in binding affinity compared to the parent murine antibody [4]: ≥ 7 fold
IC50 Fold Loss [5]: 5.3 fold
B10: heRX1-3.G2 (antibody, V domains shown)
VH: B8 VH with S17T, N44K, S69T, T71S, F80S, T88A, E89A, S113T
VL: EIVLTQSPGTLSVSPGERVTFSCRASQSIGTSIHWYQQKTGQAPRLLIKYASERATGIPDRFSGSGSGTDFTLTISRVESEDFADYYCQQINSWPTTFGQGTKLEIKR
notes: not shown: human Gamma-2 heavy chain constant region; human Kappa light chain constant region (the printed V regions end in EIKRT, which may overlap its start)

Kd [13]: 9.8 nM
koff [13]: 0.00148 s⁻¹
kon [13]: 152000 M⁻¹ s⁻¹
fold decrease in binding affinity compared to the parent murine antibody [4]: ≥ 7 fold
IC50 Fold Loss [5]: 5.9 fold
B12: heRX1-8.G2 (antibody, V domains shown)
VH: QVQLQESGPGLVKPSQTLSLTCTVSDYSITSDYAWNWIRQFPGKGLEWMGYISYSGSTSYNPSLKSRITISRDTSKNQFSLQLNSVTAADTAVYYCASFDYAHAMDYWGQGTTVTVSS
VL: EIVLTQSPGTLSVSPGERVTFSCRASQSIGTSIHWYQQKTGQAPRLLIKYASESISGIPDRFSGSGSGTDFTLTISRVESEDFADYYCQQINSWPTTFGQGTKLEIK
notes: copies: 2 + 2

Kd [13]: 7.6 nM
koff [13]: 0.00165 s⁻¹
kon [13]: 218000 M⁻¹ s⁻¹
fold decrease in binding affinity compared to the parent murine antibody [4]: ≥ 7 fold
IC50 Fold Loss [5]: 3.1 fold
B14: heRX1-2.G2 (antibody, V domains shown)
VH: B12 VH
VL: B10 VL with A43S, A55I, T56S
notes: as for B10

Kd [1]: 3 nM
koff [1]: 0.00177 s⁻¹
kon [1]: 594000 M⁻¹ s⁻¹
Kd [10]: 9.9 nM
koff [10]: 0.00126 s⁻¹
kon [10]: 127000 M⁻¹ s⁻¹
B15: murine monoclonal antibody 5H4 (antibody, mouse IgG1, kappa, V domains shown)
VH: EIQLQQSGPELVKTGTSVKISCKASGYSFTGYFMHWVKQSHGKSLEWIGYISCYNGDTNYNQNFKGKATFTVDTSSSTAYMQFNSLTSEDSAVYYCAREGGNYPAYWGQGTLVTVSA
VL: DIVMTQSHKFMSTSVGDRVTITCKASQNVGTAVTWYQQKPGQSPKLLIYWTSTRHAGVPDRFTGSGSGTDFTLTISDVQSEDLADYFCQQYSSYPLTFGAGTKLELKR

Continued, binder first:

B2: heRX1-1.G2 (antibody)
heavy: B12 VH with Q1D, S25T, G45K, V93T
light: EIVLTQSPGTLSVSPGERVTFSCRASQSIGTSIHWYQQKTGQSPRLLIKYASERISGIPDRFSGSGSGTDFTLTISRVESEDFADYYCQQINSWPTTFGQGTKLEIKRT
notes: The legends may have 45 and 48 exchanged; also called heRX1-1-IgG2; heRX1-1.IgG2; not shown: human Gamma-2 heavy chain constant region; human Kappa light chain constant region (the printed V regions end in EIKRT, which may overlap its start)
Kd [2]: 5.9 nM
koff [2]: 0.00137 s⁻¹
kon [2]: 236000 M⁻¹ s⁻¹
Kd [3]: 5.9 nM
koff [3]: 0.00137 s⁻¹
kon [3]: 236000 M⁻¹ s⁻¹
fold decrease in binding affinity compared to the parent murine antibody [4]: ≥ 7 fold
IC50 Fold Loss [5]: 2.8 fold

B3: heRX1-1.G4 (antibody)
heavy: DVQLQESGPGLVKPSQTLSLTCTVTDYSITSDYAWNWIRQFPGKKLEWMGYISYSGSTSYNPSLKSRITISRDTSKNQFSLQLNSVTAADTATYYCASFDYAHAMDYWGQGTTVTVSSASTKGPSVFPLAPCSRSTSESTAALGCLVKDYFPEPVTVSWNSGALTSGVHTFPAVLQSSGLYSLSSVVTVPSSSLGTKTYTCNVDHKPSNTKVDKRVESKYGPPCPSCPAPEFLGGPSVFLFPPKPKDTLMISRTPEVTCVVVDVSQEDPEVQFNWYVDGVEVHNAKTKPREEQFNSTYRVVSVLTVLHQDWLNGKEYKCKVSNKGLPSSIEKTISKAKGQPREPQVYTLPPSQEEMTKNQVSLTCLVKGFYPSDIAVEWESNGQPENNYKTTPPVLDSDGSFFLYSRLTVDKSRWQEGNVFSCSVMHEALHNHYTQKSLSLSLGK
light: B2 light
notes: also called heRX1-1-IgG4; heRX1-1.IgG4; not shown: human Kappa light chain constant region (the printed V regions end in EIKRT, which may overlap its start)
Kd [6]: 1.42 nM
koff [6]: 0.000293 s⁻¹
kon [6]: 207000 M⁻¹ s⁻¹

B4: heRX1-1.G1 (antibody)
heavy: not shown
light: B2 light
notes: heavy pMXC29 Low Risk (Kabat), Gamma 1; also called heRX1-1-IgG1; heRX1-1.IgG1; not shown: human Kappa light chain constant region (the printed V regions end in EIKRT, which may overlap its start)
Kd [6]: 0.95 nM
koff [6]: 0.000238 s⁻¹
kon [6]: 250000 M⁻¹ s⁻¹

B5: murine monoclonal antibody RX1 (antibody, V domains shown)
VH: B8 VH
VL: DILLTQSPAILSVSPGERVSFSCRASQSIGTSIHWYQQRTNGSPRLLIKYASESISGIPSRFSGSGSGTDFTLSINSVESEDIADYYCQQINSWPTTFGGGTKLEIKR
notes: Intact murine antibody; The hybridoma or commercial RX1 and the recombinant murine RX1 (rRX1, rmRX1) are treated as one molecule; also called Murine RX1; rRX1(mouse)
Kd [7]: 0.7 nM
koff [7]: 0.000156 s⁻¹
kon [7]: 223000 M⁻¹ s⁻¹
EC50 (M-CSF neutralization) [8]: 2 ng/mL
Kd [9]: 0.7 nM
koff [9]: 0.000156 s⁻¹
kon [9]: 223000 M⁻¹ s⁻¹
Kd [1]: 0.16 nM
koff [1]: 0.00027 s⁻¹
kon [1]: 1.64e+06 M⁻¹ s⁻¹
Kd [10]: 1 nM
koff [10]: 0.000235 s⁻¹
kon [10]: 234000 M⁻¹ s⁻¹

B6: heRX1-10.G2 (antibody, V domains shown)
VH: B12 VH
VL: DIVLTQSPAFLSVTPGEKVTFTCQASQSIGTSIHWYQQKTDQAPKLLIKYASESISGIPSRFSGSGSGTDFTLTISSVEAEDAADYYCQQINSWPTTFGGGTKLEIKR
notes: not shown: human Gamma-2 heavy chain constant region; human Kappa light chain constant region (the V region entry may overlap its start)
Kd [11]: 6.3 nM
koff [11]: 0.0011 s⁻¹
kon [11]: 173000 M⁻¹ s⁻¹
Kd [12]: 6.3 nM
koff [12]: 0.0011 s⁻¹
kon [12]: 173000 M⁻¹ s⁻¹
fold decrease in binding affinity compared to the parent murine antibody [4]: ≥ 7 fold
IC50 Fold Loss [5]: 2.2 fold

B7: heRX1-7.G2 (antibody, V domains shown)
VH: B12 VH with Q1D, S25T, G45K, V93T
VL: B12 VL
notes: copies: 2 + 2
Kd [13]: 9.5 nM
koff [13]: 0.00149 s⁻¹
kon [13]: 157000 M⁻¹ s⁻¹
fold decrease in binding affinity compared to the parent murine antibody [4]: ≥ 7 fold
IC50 Fold Loss [5]: 6.1 fold

B9: heRX1-4.G2 (antibody, V domains shown)
VH: B12 VH
VL: B10 VL
notes: as for B10
Kd [13]: 4.6 nM
koff [13]: 0.00108 s⁻¹
kon [13]: 238000 M⁻¹ s⁻¹
fold decrease in binding affinity compared to the parent murine antibody [4]: ≥ 7 fold
IC50 Fold Loss [5]: 4.6 fold

B11: heRX1-5.G2 (antibody, V domains shown)
VH: B12 VH with Q1D, S25T, G45K, V93T
VL: B10 VL with A43S, R54S, A55I, T56S
notes: as for B10
Kd [13]: 7.4 nM
koff [13]: 0.00129 s⁻¹
kon [13]: 175000 M⁻¹ s⁻¹
fold decrease in binding affinity compared to the parent murine antibody [4]: ≥ 7 fold
IC50 Fold Loss [5]: 6.5 fold

B13: heRX1-9.G2 (antibody, V domains shown)
VH: B12 VH with Q1D, S25T, G45K, V93T
VL: B6 VL
notes: as for B6
Kd [13]: 7.2 nM
koff [13]: 0.00144 s⁻¹
kon [13]: 200000 M⁻¹ s⁻¹
fold decrease in binding affinity compared to the parent murine antibody [4]: ≥ 7 fold
IC50 Fold Loss [5]: 3.6 fold
